Experimental data from patent publication US6147204, “Nucleic acid ligand complexes” (NeXstar Pharmaceuticals, Inc.).

Experiments:
[1] = biological target: T1, VEGF (vascular endothelial growth factor) (UniProt P15692-4 P15692-4:27-191); assay: competition; not an effective competitor up to 2 uM; conditions: chain copies: 2
Protocol: (§1) NX278-Liposome Complex was prepared by incubating NX-278 (1 mg) (FIG. 1N; SEQ ID NO: 19) with of a mixture of DSPC:cholesterol (50 mg) in 10 mM phosphate (pH 7.4) buffer containing 9% sucrose and sonicated for 15–30 min using a probe-type sonicator until opalescent solution was obtained. The control Nucleic Acid Ligand-Liposome Complex containing a sequence scrambled analog of ligand NX-278 (scNX278) (FIG. 1W; SEQ ID NO:28) was prepared in the same manner. The size of Liposome particles (typically […]), determined in a particle analyzer (Leeds & Northrup Model Microtrack UPA 150, Horsham, Pa.) was similar to those obtained in the absence of the Nucleic Acid Ligand.

[2] = biological target: T1, VEGF (vascular endothelial growth …); assay: 1 uM not inhibitory in guinea pig Miles assay; conditions: chain copies: 2
Source text: The ability of NX278-liposome to inhibit the vascular permeability activity of VEGF in vivo was examined.

[3] = biological target: T1, VEGF (vascular endothelial growth …); assay: competition; ED50, competition ELISA against biotin-labeled VEGF ligand on immobilized VEGF; printed 10^-9 M; conditions: chain copies: 2
[4] = biological target: T1, VEGF (vascular endothelial growth …); assay: competition; apparent ED50, competition ELISA; printed 10^-7 M; conditions: chain copies: 2
Protocol: as §1

[5] = biological target: T1, VEGF (vascular endothelial growth …); assay: cell_activity; inhibition of HUVEC proliferation with 10 ng/ml VEGF; KS cells (KSY-1) IC50 about 100 nM; conditions: chain copies: 2
Protocol: The effects of NX278-liposome, scNX278-liposome and NX213 on the proliferation of human umbilical vein endothelial cells (HUVEC) and Kaposi's Sarcoma (KS) cells in tissue culture were examined. HUVECs were grown in the presence of VEGF (10 ng/ml) in IMDM:Ham's F12 (1:1) medium containing 10% fetal calf serum (FCS) and heparin (45 μg/ml). Cells were plated in 24-well gelatin-coated plates at a density of 20,000 cells per well on day zero and treated with the above ligands at concentrations between 0.1 nM to 1 μM on days 1, 2, and 3 (replacing the media along with the ligands). Cell count was performed on day 4. KS cell line KSY-1 was plated in 24-well gelatin coated plates at a density of 7,500–10,000 cells per well on day zero in medium containing RPMI 1640 supplemented with 2% FCS, L-glutamine, penicillin and streptomycin. Nucleic Acid Ligands were added at concentrations between 0.1 nM to 1 μM in fresh medium on day 1, 2, and 3 and the cell count was performed on day 4.

[6] = biological target: T2, bFGF (basic fibroblast growth factor) (UniProt P09038 P09038:143-288); assay: binding affinity stated as 1 nM; conditions: blunt-ended hairpin, Tm 68 C
[7] = biological target: T2, bFGF (basic fibroblast growth factor); assay: 5'-32P binding assay; same affinity as unconjugated 225T3; conditions: label: 5'-32P; hairpin
Protocol: Preparation and Functional Properties of PEG Conjugated and Cholesterol-Derivatized Nucleic Acid Ligands A PEG 3400 conjugate of a Nucleic Acid Ligand retains the binding affinity of the non-conjugated molecule The ability of a bFGF ligand/PEG-3400 conjugate to bind bFGF was tested. Molecule 225T3 (SEQ ID NO: 10), a high affinity DNA ligand to bFGF, was chosen for conjugation with PEG via a primary amine-NHS coupling reaction. […] Ligand 225T3 was modified with a 3'-amino-modifier C7 CPG (Glen Research, Sterling, Va.) using standard DNA synthesis methods and will be referred to as 225T3N (SEQ ID NO:11). 225T3N was reacted with the N-hydroxysuccinimidyl (NHS) active ester of PEG (avg. MW 3400) in 20% (v/v) […] 80% (v/v) 0.5 M sodium bicarbonate buffered at pH 8.5. The resulting conjugate, 225T3N-PEG-3400 (SEQ ID NO: 14), was purified from the free DNA on a 12% polyacrylimide/7 M urea gel. The conjugate was 5' end-labeled with ^32P and a binding assay was performed.

[8] = biological target: T2, bFGF (basic fibroblast growth factor); assay: 5'-32P binding assay; identical to 225T3; conditions: label: 5'-32P; hairpin

T1 sequence (P15692 other isoform, or with tags, fused parts or gaps): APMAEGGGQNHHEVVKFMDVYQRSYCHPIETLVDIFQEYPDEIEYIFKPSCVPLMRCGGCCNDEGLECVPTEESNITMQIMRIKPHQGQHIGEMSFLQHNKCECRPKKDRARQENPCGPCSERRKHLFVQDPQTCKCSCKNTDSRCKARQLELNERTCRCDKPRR
T2 sequence (P09038 143-288, one chain of several): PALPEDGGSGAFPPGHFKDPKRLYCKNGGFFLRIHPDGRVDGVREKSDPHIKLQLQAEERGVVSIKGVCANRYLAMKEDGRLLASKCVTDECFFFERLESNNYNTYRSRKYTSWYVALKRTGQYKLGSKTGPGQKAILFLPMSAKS

B1: scNX278-liposome (mixed)
mixed: TTTTGUCGGUACGGAGUGGACCGUCACGTTTTT
modifications: dialkylglycerol (DAG), embedded in DSPC:cholesterol liposome
- EC50 [1]: > 2000 nM
- binding result [2]: no binding

B2: NX213 (mixed)
mixed: TTTTACCCUGAUGGUAGACGCCGGGGUGTTTTT
- EC50 [3]: ~1 nM

B3: NX278-liposome (mixed)
mixed: TTTTACCCUGAUGGUAGACGCCGGGGUGTTTTT
modifications: 5'-dialkylglycerol (DAG), embedded in DSPC:cholesterol liposome
- EC50 [4]: ~100 nM
- IC50 [5]: ~300 nM

B4: 225T3 (ssDNA)
DNA: GCGGGGCTACGTACCGGGGCTTTGTAAAACCCCGC
- Kd [6]: 1 nM

B5: 225T3N-PEG-3400 (ssDNA)
DNA: GCGGGGCTACGTACCGGGGCTTTGTAAAACCCCGC
modifications: 3'-amino modifier C7 coupled to PEG (avg. MW 3400)
- Kd [7]: 1 nM

B6: 225T3-Cholesterol (ssDNA)
DNA: GCGGGGCTACGTACCGGGGCTTTGTAAAACCCCGC
modifications: 3'-tetraethyleneglycol cholesterol
- Kd [8]: 1 nM
